{"source": "patent US20110250613A1", "about": "“Arrayed Multiple Ubiquitin Binding Domains as Linkage-specific Polyubiquitin Affinity Reagents” (THE JOHNS HOPKINS UNIVERSITY, priority 2009, published 2011)", "molecules": {"B1": {"name": "Vps27 (WT): yeast Vps27 tandem UIM peptide with unstructured 25-residue linker (protein)", "peptide": "PSSHHHHHHSSGLVPRGSHMDRDYSTPEDEEELIRKAIELSLKESRNSASSEPIVPVVESKNEVKRQEIEEEEDPDLKAAIQESLREAEEAKLRSERQKAC"}, "B2": {"name": "Rap80 6aa linker: Rap80 tUIM peptide with 6-residue linker REVAAE (protein)", "peptide": "PSSHHHHHHSSGLVPRGSHMTEEEQFALALKMSEQEAREVAAEEEEEELLRKAIAESLNSCRPS"}, "B3": {"name": "ataxin-3 Rap80 linker: ataxin-3 UIMs spliced together with the Rap80 linker REVNSQE (protein)", "peptide": "PSSHHHHHHSSGLVPRGSHMDEDEEDLQRALALSRQEIREVNSQEEDEEADLRRAIQLSMQGSSRNC"}, "B4": {"name": "ataxin-3 7A linker: ataxin-3 UIMs joined by a 7-alanine linker (protein)", "peptide": "B3 peptide with R39A, E40A, V41A, N42A, S43A, Q44A, E45A"}, "B5": {"name": "Rap80 (residues 1-233): N-terminal 233 residues of Rap80, fluorescently labeled on the same UIM cysteine (protein)", "chain": "MPRRKKKVKEVSESRNLEKKDVETTSSVSVKRKRRLEDAFIVISDSDGEEPKEENGLQKTKTKQSNRAKSLAKRKIAQMTEEEQFALALKMSEQEAREVNSQEEEEEELLRKAIAESLNSCRPSDASATRSRPLATGPSSQSHQEKTTDSGLTEGIWQLVPPSLFKGSHISQGNEAEEREEPWDHTEKTEEEPVSGSSGSWDQSSQPVFENVNVKSFDRSTGHSAEHTQSGKP"}, "B6": {"name": "Rap80 (WT): His6-tagged human Rap80 tandem UIM peptide, linker REVNSQE, fluorescein-labeled on C121; sequence in Table 1 (protein)", "peptide": "PSSHHHHHHSSGLVPRGSHMTEEEQFALALKMSEQEAREVNSQEEEEEELLRKAIAESLNSC(fluorescein)RPS"}, "B7": {"name": "Rap80 7A linker: Rap80 UIMs linked by 7 alanine residues (protein)", "peptide": "PSSHHHHHHSSGLVPRGSHMTEEEQFALALKMSEQEAAAAAAAAEEEEELLRKAIAESLNSCRPS"}, "B8": {"name": "unlabeled Rap80 tUIM peptide: unlabeled version of the fluorescent Rap80 tUIM peptide (protein)", "peptide": "B7 peptide with A38R, A39E, A40V, A41N, A42S, A43Q, A44E"}, "B9": {"name": "Rap80 DLKAAIQ: Rap80 tUIM peptide, linker DLKAAIQ (protein)", "peptide": "B7 peptide with A38D, A39L, A40K, A43I, A44Q"}, "B10": {"name": "Rap80 S101E: Rap80 tUIM peptide, linker REVNEQE (protein)", "peptide": "B7 peptide with A38R, A39E, A40V, A41N, A42E, A43Q, A44E"}, "B11": {"name": "Rap80 S101A: Rap80 tUIM peptide, linker REVNAQE (protein)", "peptide": "B7 peptide with A38R, A39E, A40V, A41N, A43Q, A44E"}, "B12": {"name": "Rap80 ARLEEKV: Rap80 tUIM peptide, linker ARLEEKV (protein)", "peptide": "B7 peptide with A39R, A40L, A41E, A42E, A43K, A44V"}, "B13": {"name": "Rap80 2 x linker: Rap80 tUIM peptide with 14-residue linker REVNSQEREVNSQE (protein)", "peptide": "PSSHHHHHHSSGLVPRGSHMTEEEQFALALKMSEQEAREVNSQEREVNSQEEEEEELLRKAIAESLNSCRPS"}, "B14": {"name": "Vps27 7aa linker: Vps27 UIMs connected with 7-residue linker RAEEKVK (protein)", "peptide": "PSSHHHHHHSSGLVPRGSHMEEEEDPDLKAAIQESLREARAEEKVKEDEEELIRKAIELSLKESRNCA"}}, "key": {"[1]": {"molecular_target": "T1, K63-Ub2 (Homo sapiens, UniProt P0CG47, K63R)", "T1 construct": "Ub and K48- and K63-linked diUb and tetraUb were made as described; made in house", "assay": "Fluorescence anisotropy binding of fluorescent tUIM peptides to K63-Ub2", "conditions": "for Kd: fluorescence anisotropy, single-site fit, 25° C., pH 7.4", "description": "(§1) Fluorescent Labeling. Rap80 tUIM peptides were fluorescently-labeled on the sulfhydryl group of C121 (see FIG. 1). For longer Rap80 constructs, all cysteines except C121 were mutated to serine for site-specific labeling. Ataxin-3 and Vps27 UIM peptides were labeled on a single cysteine introduced at the C-terminus. Fluorescein-5-maleimide (Pierce) was coupled to cysteines following the manufacturer's instructions. After desalting through Sephadex G-25 resin, fluorescein-labeled tUIM peptides were separated from unlabeled peptides by anion-exchange chromatography (MonoQ column, GE Biosciences) by elution with a NaCl gradient in 50 mM Tris buffer, pH 7.9. The labeled peptides were essentially 100% pure by SDS-PAGE and Coomassie blue staining, and MALDI-TOF mass spectrometry confirmed the addition of a single fluorescein moiety. Fluorescence Anisotropy Binding Assays. Fluorescence anisotropy measurements were made using a Fluoromax 4 fluorometer in L format, thermostatted at 25° C. Excitation and emission monochromators were set at 492 nm and 520 nm, respectively. Slit widths were 3 nm for diUb-binding assays ([…]) or 6 nm for tetraUb-binding assays ([…]). Anisotropies were calculated by the instrument software, and the overall intensity of the fluorescence signal was monitored at each point with the polarizers oriented at the magic angle. All measurements were made in fluorescence buffer (25 mM Na phosphate [pH 7.4], 150 mM NaCl, 5 mM β-mercaptoethanol, 1 mM EDTA, and either 0.005% surfactant P20 (BIACORE) or 0.05% Brij35). Concentrations of the fluorescent proteins were calculated using the fluorescein extinction coefficient at 494 nm, 68000 M^-1 cm^-1. (poly)Ub concentrations were assessed by absorbance at 280 nm using the extinction coefficient 0.16 (mg/ml)^-1 cm^-1 ([…] and Raasi, 2005). Fluorescence anisotropy data were fit with a single-site binding model as described (Wilkinson, 2004). The equilibrium constants for wild-type Vps27 peptide binding to K63 and K48 Ub4 were determined by competition with the fluorescent Vps27 7aa linker peptide as described (Wilkinson, 2004)."}, "[2]": {"molecular_target": "T2, K48-Ub2 (Homo sapiens, UniProt P0CG47, K48R)", "T2 construct": "Ub and K48- and K63-linked diUb and tetraUb were made as described; made in house", "assay": "Fluorescence anisotropy binding of fluorescent tUIM peptides to K48-Ub2", "conditions": "single-site fit, 25° C., pH 7.4", "protocol": "Fluorescence Anisotropy Binding Assays. Fluorescence anisotropy measurements were made using a Fluoromax 4 fluorometer in L format, thermostatted at 25° C. Excitation and emission monochromators were set at 492 nm and 520 nm, respectively. Slit widths were 3 nm for diUb-binding assays (1 mM fluorophore) or 6 nm for tetraUb-binding assays (0.1 mM fluorophore). Anisotropies were calculated by the instrument software, and the overall intensity of the fluorescence signal was monitored at each point with the polarizers oriented at the magic angle. All measurements were made in fluorescence buffer (25 mM Na phosphate [pH 7.4], 150 mM NaCl, 5 mM β-mercaptoethanol, 1 mM EDTA, and either 0.005% surfactant P20 (BIACORE) or 0.05% Brij35). Concentrations of the fluorescent proteins were calculated using the fluorescein extinction coefficient at 494 nm, 68000 M^-1 cm^-1. (poly)Ub concentrations were assessed by absorbance at 280 nm using the extinction coefficient 0.16 (mg/ml)^-1 cm^-1 ([…] and Raasi, 2005). Fluorescence anisotropy data were fit with a single-site binding model as described (Wilkinson, 2004)."}, "[3]": {"molecular_target": "K48-Ub4", "assay": "Fluorescence anisotropy binding of fluorescent tUIM peptides to K48-Ub4", "description": "as §1"}, "[4]": {"test_system": "K63-Ub4", "assay": "Fluorescence anisotropy binding of fluorescent tUIM peptides to K63-Ub4", "description": "as §1"}, "[5]": {"molecular_target": "T3, K63-Ub4 (Homo sapiens, UniProt P0CG47, K63R)", "T3 construct": "Ub and K48- and K63-linked diUb and tetraUb were made as described; made in house", "assay": "Fluorescence anisotropy binding of fluorescent tUIM peptides to K63-Ub4", "description": "as §1"}, "[6]": {"test_system": "K63-Ub2", "assay": "Fluorescence anisotropy binding of fluorescent tUIM peptides to K63-Ub2", "description": "as §1"}, "[7]": {"assay": "CD measurements of helical content of tUIM peptides", "format": "physicochemical", "conditions": "whole-spectrum interpretation of CD; peptide without vector-derived residues", "experimental": "Measurements of 3 samples were collected and are shown in FIG. 2D: (1) 153 μM Rap80 tUIM alone, (2) 153 μM K63-Ub2 alone, and (3) a mixture of 153 μM Rap80 tUIM with 153 μM K63-Ub2. The contribution of Rap80 tUIM to spectrum (3) was sought, so that the helical content of the bound tUIM could be estimated. […] Therefore, the difference between spectrum (3) and spectrum (2) will give the contribution from Rap80 tUIM to the total CD spectrum of the Rap80-K63-Ub2 mixture. (A) The spectrum of unbound Rap80 [spectrum (1)] is shown here as triangles. The contribution of Rap80 to spectrum (3) was calculated as (3)−(2), and is shown here as squares. Because the mixture of Rap80 with K63-Ub2 is not at saturating concentrations, bound and unbound Rap80 are both present in the solution. The observed helical fraction (Hmix) for this complex mixture can be described by:\nWhere Fbound and Funbound are the fractions of the bound and unbound forms of Rap80 present in the mixture, respectively, and Hbound and Hunbound are the helical contents of the bound and unbound forms of Rap80, respectively. […] (B) Shown here is a summary of the secondary structure predictions from two methods and the corresponding Hbound values calculated as described above. […]\nCD Measurements. […] Peptide concentrations were independently determined before each CD reading from absorbance measurements (fluorescein) of samples in the CD cuvette."}, "[8]": {"conditions": "determined by competition with the fluorescent Vps27 7aa linker peptide"}, "[9]": {"conditions": "fluorescence anisotropy, single-site fit, 25° C., pH 7.4"}, "[10]": {"conditions": "fluorescence anisotropy Kd values"}}, "note": "Changes are numbered by the printed parent chain. Names and notes keep the numbering of the source."}
{"molecule": "B1", "values": [{"measurement": "Kd", "setting": "[1]", "result": 67, "unit": "µM"}, {"measurement": "Kd", "setting": "[2]", "result": 211, "unit": "µM"}, {"measurement": "Kd", "setting": "[3]; [8]", "result": 31, "unit": "µM"}, {"measurement": "binding of K63-Ub4 versus K48-Ub4", "setting": "[4]; fluorescence anisotropy", "result": "indistinguishably"}, {"measurement": "Kd", "setting": "[5]; [8]", "result": 29, "unit": "µM"}]}
{"molecule": "B2", "values": [{"measurement": "Kd", "setting": "[1]", "result": 87, "unit": "µM"}, {"measurement": "Kd", "setting": "[2]", "result": 160, "unit": "µM"}]}
{"molecule": "B3", "values": [{"measurement": "Kd", "setting": "[1]", "result": 60, "unit": "µM"}, {"measurement": "Kd", "setting": "[2]", "result": 160, "unit": "µM"}, {"measurement": "Kd", "setting": "[3]; [9]", "result": 7.8, "unit": "µM"}, {"measurement": "Kd", "setting": "[5]; [9]", "result": 11, "unit": "µM"}]}
{"molecule": "B4", "values": [{"measurement": "Kd", "setting": "[1]", "result": 17, "unit": "µM"}, {"measurement": "Kd", "setting": "[2]", "result": 140, "unit": "µM"}, {"measurement": "Kd", "setting": "[3]; [9]", "result": 9.3, "unit": "µM"}]}
{"molecule": "B5", "values": [{"measurement": "preference for K63-Ub4 over K48-Ub4", "setting": "[4]; solution fluorescence anisotropy", "result": 7, "unit": "fold"}]}
{"molecule": "B6", "values": [{"measurement": "preference for K63-Ub2 over monoUb", "setting": "[6]; [10]", "result": 24, "unit": "fold"}, {"measurement": "preference for K63-Ub2 over K48-Ub2", "setting": "[6]; from Kd values", "result": 7, "unit": "fold"}, {"measurement": "Kd", "setting": "[1]", "result": "21.6 ± 0.8", "unit": "µM"}, {"measurement": "α-helical content, K63-Ub2-bound form", "setting": "[7]", "result": "~100", "unit": "%"}, {"measurement": "α-helical content, unbound form", "setting": "[7]", "result": "30%-35%"}, {"measurement": "bound K48-Ub4 tighter than K48-Ub2", "setting": "[3]; [10]", "result": "more than 11 times"}]}
{"molecule": "B7", "values": [{"measurement": "binds K63-Ub2 more tightly than Rap80 with the wild-type linker", "setting": "[1]; Table 2 Kd values", "result": 6, "unit": "fold"}, {"measurement": "Kd", "setting": "[1]", "result": 3.6, "unit": "µM"}, {"measurement": "Kd", "setting": "[2]", "result": 160, "unit": "µM"}]}
{"molecule": "B8", "values": [{"measurement": "Ki", "setting": "[1]; unlabeled peptide titrated against fluorescent Rap80 tUIM peptide at saturating K63-Ub2, read-out: Ki for the binding inhibition", "result": 24, "unit": "µM"}]}
{"molecule": "B9", "values": [{"measurement": "Kd", "setting": "[1]", "result": 10, "unit": "µM"}, {"measurement": "Kd", "setting": "[2]", "result": "129 ± 5", "unit": "µM"}]}
{"molecule": "B10", "values": [{"measurement": "Kd", "setting": "[1]", "result": 16, "unit": "µM"}, {"measurement": "Kd", "setting": "[2]", "result": "170 ± 5", "unit": "µM"}]}
{"molecule": "B11", "values": [{"measurement": "Kd", "setting": "[1]", "result": 11, "unit": "µM"}, {"measurement": "Kd", "setting": "[2]", "result": "152 ± 6", "unit": "µM"}]}
{"molecule": "B12", "values": [{"measurement": "Kd", "setting": "[1]", "result": 17, "unit": "µM"}, {"measurement": "Kd", "setting": "[2]", "result": 230, "unit": "µM"}]}
{"molecule": "B13", "values": [{"measurement": "Kd", "setting": "[1]", "result": 150, "unit": "µM"}, {"measurement": "Kd", "setting": "[2]", "result": 170, "unit": "µM"}]}
{"molecule": "B14", "values": [{"measurement": "Kd", "setting": "[1]", "result": 2.2, "unit": "µM"}, {"measurement": "Kd", "setting": "[2]", "result": 98, "unit": "µM"}, {"measurement": "Kd", "setting": "[3]; [9]", "result": 6.5, "unit": "µM"}, {"measurement": "Kd", "setting": "[5]; [9]", "result": 0.62, "unit": "µM"}]}
